Measured values taken from patent CN113150161A.

Molecular target: 小菜蛾钙黏蛋白毒素结合区(PxCad-TBR) (小菜蛾 (Plutella xylostella))
Experiment: competitive ELISA on coated PxCad-TBR, 500 μg/mL Cry2Aa, competitor 2G4 (3.75 μg/mL, molar ratio 294:1)

Q: For “活化Cry2Aa毒素(分子量68 kDa) (from UniProt P0A377 50-633)”, which 抑制作用 (%) is on record?
A: The 抑制作用 (%) was 44%.
